We go through three sequences from paper PMC6205234.

The target in this series is GST-NS1 (Influenza A virus (H3N2)) (UniProt P03495). The series can be described thus: fluorescence anisotropy. (In general: In fluorescence polarisation assays a small probe gives low polarisation when free and higher when bound to something large.)
GST-NS1 (Influenza A virus (H3N2)), sequence (P03495 whole entry): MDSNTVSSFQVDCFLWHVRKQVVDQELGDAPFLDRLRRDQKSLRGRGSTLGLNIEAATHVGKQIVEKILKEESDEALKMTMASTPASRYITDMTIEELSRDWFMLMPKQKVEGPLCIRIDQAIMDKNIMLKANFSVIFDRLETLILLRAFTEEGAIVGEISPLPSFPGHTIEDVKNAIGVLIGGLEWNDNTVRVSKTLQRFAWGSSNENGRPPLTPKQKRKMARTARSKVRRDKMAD
“CCAUCCUCUACAGGCG / CGCCUGUAGAGGAUGG [dsRK1]” registered a Kd of 170 nM.

“GCUAUCCAGAUUCUGAUU / GAAUCAGAAUCUGGAUAGC [dsCR1]” returned a Kd of 2400 nM. Take GGGGGGGGGGGGGGGGGU [Poly (G)18]: the Kd turned out to be 1200 nM.

As usually defined, the Kd is the constant that tells how readily two partners part at equilibrium. Read a high Kd as lower affinity.
